Among the data in US20190092827A1 (University of Texas, published 2019) are Kd values, retold here.

This series concerns the molecule itself. In words: solution NMR spectroscopy, monomer-dimer equilibrium (homodimerisation).

For orientation: Kd means a measure of binding affinity in units of concentration. High values mean lower affinity, low ones higher affinity.

B1: WT MIP-2 (chemokine CXCL2, also known as MIP-2 in mice) (ligand, mouse, UniProt P10889 28-100, looked up)
chain: AVVASELRCQCLKTLPRVDFKNIQSLSVTPPGPHCAQTEVIATLKGGQKVCLDPEAPLVQKIIQKILNKGKAN
notes: also called native MIP-2; wild-type (WT) chemokine
As for B1, the Kd was 10 µM.
